Substrate in data set [1]: O=c1ccn([C@@H]2O[C@H](COP(=O)(O)OP(=O)(O)OP(=O)(O)O)[C@@H](O)[C@H]2O)c(=O)[nH]1
As to the kind of experiment: purified protein. The format is biochemical, Bacillus subtilis. Conditions: 200 μM Glc-1-P, MgCl2 10 mg/ml (so in the source), 50 mM Tris pH 7.5, 500 mM NaCl, 5% glycerol, RT.

Substrate in data set [2]: O=P(O)(O)O[C@H]1O[C@H](CO)[C@@H](O)[C@H](O)[C@H]1O
As to the kind of experiment: purified protein. The data set is classed as biochemical, Bacillus subtilis. The settings on record: 200 μM UTP, MgCl2 10 mg/ml (so in the source), 50 mM Tris pH 7.5, 500 mM NaCl, 5% glycerol, RT.

Here are results for two proteins from publication PMC7961091, “Bacillus subtilis YngB contributes to wall teichoic acid glucosylation and glycolipid formation during anaerobic growth” (The Journal of Biological Chemistry, 2021).

B1: GtaB (Bacillus subtilis subsp. subtilis str. 168) (protein)
chain: MKKVRKAIIPAAGLGTRFLPATKAMPKEMLPIVDKPTIQYIIEEAVEAGIEDIIIVTGKSKRAIEDHFDYSPELERNLEEKGKTELLEKVKKASNLADIHYIRQKEPKGLGHAVWCARNFIGDEPFAVLLGDDIVQAETPGLRQLMDEYEKTLSSIIGVQQVPEEETHRYGIIDPLTSEGRRYQVKNFVEKPPKGTAPSNLAILGRYVFTPEIFMYLEEQQVGAGGEIQLTDAIQKLNEIQRVFAYDFEGKRYDVGEKLGFITTTLEFAMQDKELRDQLVPFMEGLLNKEEI
notes: full-length, C-terminal His-tag cleaved off with thrombin (pET28b-gtaB-cHis), E. coli BL21(DE3)
The Km is the concentration of substrate that gives half-maximal velocity. Broadly, the kcat is the number of substrate molecules converted per active site and unit of time at saturation. As to B1, in data set [1], the Michaelis-Menten constant (Km) turned out to be 49.5 ± 10.2 µM and the turnover number (kcat) was 1.04 s⁻¹. Further, in data set [2], the Km was 45.6 ± 3.24 µM and the kcat came to 1.06 s⁻¹.

B2: YngB (Bacillus subtilis subsp. subtilis str. 168) (protein)
chain: MRKKVRKAVIPAAGLGTRFLPATKAQPKEMLPIVDKPAIQYIVEEAAESGIEDILIITGRNKRSIEDHFDRSAELEFNLREKGKTETLKEMQQIADLANIHYIRQKEPLGLGHAVLCAEHFIGDEPFAVLLGDDIMVSETPALRQLMDVYDVYGTEVVGVQSVLPEDVSKYGIINTSGSQGHVYEVNDLVEKPSPEEAPSEIAVMGRYVLNSSIFSVLKTIGRGAGNEIQLTDALREVCRKEPIHARLLEGNRYDIGDKLGCFKASTEIGLMRPEMRSQLLAYLEDVIKRETKEMLR
notes: full-length, C-terminal His-tag kept (pET28b-yngB-cHis), E. coli BL21(DE3); native (Met) protein in kinetics; dimer in crystal
With B2, in data set [1], the Michaelis-Menten constant (Km) turned out to be 62.9 ± 13.8 µM and the catalytic constant (kcat) is 0.293 s⁻¹. In data set [2], the Km is 42.1 ± 20.2 µM and the turnover number (kcat) is 0.264 s⁻¹.
